Results published in US20080112961A1 (MacroGenics, published 2008).
Residue numbers refer to the chain shown, from its start. Numbers in names are those of the source.

T1: FcγRIIB (form not stated) (UniProt P31994 43-217, limits assumed)
T1 construct: also called FcγRIIB (ELISA)
T1 sequence (looked up): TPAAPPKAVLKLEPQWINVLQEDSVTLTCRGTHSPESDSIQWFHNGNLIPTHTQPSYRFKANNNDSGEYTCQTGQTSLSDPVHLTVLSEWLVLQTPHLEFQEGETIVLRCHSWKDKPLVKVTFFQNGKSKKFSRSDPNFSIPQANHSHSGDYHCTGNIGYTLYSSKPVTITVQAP

T2: FcγRIIB-Fc fusion protein, soluble dimer: extracellular domain of FcγRIIB fused to the hinge-CH2-CH3 domain … (human, UniProt P31994 43-217, limits assumed)
T2 construct: extracellular domain; also called FcRIIB-Fc; 2bfcagl; not shown: human IgG2 hinge-CH2-CH3
T2 sequence (looked up): T1 sequence (looked up)

B1: ch4-4-20 K334E, T359N, T366S (antibody)
heavy: ASTKGPSVFPLAPSSKSTSGGTAALGCLVKDYFPEPVTVSWNSGALTSGVHTFPAVLQSSGLYSLSSVVTVPSSSLGTQTYICNVNHKPSNTKVDKKVEPKSCDKTHTCPPCPAPELLGGPSVFLFPPKPKDTLMISRTPEVTCVVVDVSHEDPEVKFNWYVDGVEVHNAKTKPREEQYNSTYRVVSVLTVLHQDWLNGKEYKCKVSNKALPAPIEETISKAKGQPREPQVYTLPPSRDELNKNQVSLSCLVKGFYPSDIAVEWESNGQPENNYKTTPPVLDSDGSFFLYSKLTVDKSRWQQGNVFSCSVMHEALHNHYTQKSLSLSPGK
B2: ch4-4-20 F275I, K334N, V348M (antibody)
heavy: B1 heavy with F158I, E217N, V231M, N242T, S249T
B3: ch4-4-20 V348M, K334N, F275I, Y202M, K147T (antibody)
chain: B1 heavy with K30T, V85M, F158I, E217N, V231M, N242T, S249T
B4: ch4-4-20 V397M, T411A, S415N (antibody)
heavy: B1 heavy with E217K, N242T, S249T, V280M, T294A, S298N
B5: ch4-4-20 K326I, S408N, P396L (antibody)
heavy: B1 heavy with K209I, E217K, N242T, S249T, P279L, S291N
B6: ch4-4-20 P247L, A431V, S442F (antibody)
heavy: B1 heavy with P130L, E217K, N242T, S249T, A314V, S325F
B7: ch4-4-20 P247L, I253N, K334N (antibody)
heavy: B1 heavy with P130L, I136N, E217N, N242T, S249T
B8: ch4-4-20 K326Q, K334E, T359N, T366S (antibody)
heavy: B1 heavy with K209Q
B9: ch4-4-20 K290E, V369A, T393A, P396L (antibody)
heavy: B1 heavy with K173E, E217K, N242T, S249T, V252A, T276A, P279L
B10: ch4-4-20 P343S, P353L, S375I, S383N (antibody)
heavy: B1 heavy with E217K, P226S, P236L, N242T, S249T, S258I, S266N
B11: ch4-4-20 K246R, S298N, I377F (antibody)
heavy: B1 heavy with K129R, S181N, E217K, N242T, S249T, I260F
B12: ch4-4-20 P244H, L358M, V379M, N384K, V397M (antibody)
heavy: B1 heavy with P127H, E217K, L241M, N242T, S249T, V262M, N267K, V280M
B13: ch4-4-20 T335N, K370E, A378V, T394M, S424L (antibody)
heavy: B1 heavy with E217K, T218N, N242T, S249T, K253E, A261V, T277M, S307L
B14: ch4-4-20 P247L, W313R, E388G (antibody)
heavy: B1 heavy with P130L, W196R, E217K, N242T, S249T, E271G
B15: ch4-4-20 K290T, N390I, P396L (antibody)
heavy: B1 heavy with K173T, E217K, N242T, S249T, N273I, P279L
B16: ch4-4-20 K222N, T335N, K370E, A378V, T394M (antibody)
heavy: B1 heavy with K105N, E217K, T218N, N242T, S249T, K253E, A261V, T277M
B17: ch4-4-20 K246N, Q419R, P396L (antibody)
heavy: B1 heavy with K129N, E217K, N242T, S249T, P279L, Q302R
B18: ch4-4-20 V282E, V369I, L406F (antibody)
heavy: B1 heavy with V165E, E217K, N242T, S249T, V252I, L289F
B19: ch4-4-20 T256S, V305I, K334E, N390S (antibody)
heavy: B1 heavy with T139S, V188I, N242T, S249T, N273S
B20: ch4-4-20 P247L, A330T, S440G (antibody)
heavy: B1 heavy with P130L, A213T, E217K, N242T, S249T, S323G
B21: ch4-4-20 V273I, K326E, L328I, P396L (antibody)
heavy: B1 heavy with V156I, K209E, L211I, E217K, N242T, S249T, P279L
B22: ch4-4-20 N315I, V379M, T394M (antibody)
heavy: B1 heavy with N198I, E217K, N242T, S249T, V262M, T277M
B23: ch4-4-20 F275L, Q362H, N384K, P396L (antibody)
heavy: B1 heavy with F158L, E217K, N242T, Q245H, S249T, N267K, P279L
B24: ch4-4-20 R301H, K340E, D399E (antibody)
heavy: B1 heavy with R184H, E217K, K223E, N242T, S249T, D282E
B25: ch4-4-20 K334E, T359N, T366S, Q386R (antibody)
heavy: B1 heavy with Q269R
B26: ch4-4-20 Mut 10 (P396L, A330S, K288N) (antibody)
heavy: B1 heavy with K171N, A213S, E217K, N242T, S249T, P279L
notes: also called Mut10(0225); K288N, A330S, P396L
B27: ch4-4-20 Mut23 (antibody)
chain 1: not shown
chain 2: DVVMTQTPLSLPVSLGDQASISCRSSQSLVHSNGNTYLRWYLQKPGQSPKVLIYKVSNRFSGVPDRFSGSGSGTDFTLKISRVEAEDLGVYFCSQSTHVPWTFGGGTKLEIKRTVAAPSVFIFPPSDEQLKSGTASVVCLLNNFYPREAKVQWKVDNALQSGNSQESVTEQDSKDSTYSLSSTLTLSKADYEKHKVYACEVTHQGLSSPVTKSFNRGEC
B28: ch4-4-20 MgFc63 (S298N, K360R, N361D) (antibody)
heavy: B1 heavy with S181N, E217K, N242T, K243R, N244D, S249T
B29: ch4-4-20 MgFc66 (A330V, V427M) (antibody)
chain 1: not shown
chain 2: B27 chain 2

These binders were tested against T3, FcγRIIIA (form not stated) (UniProt P08637 17-208, limits assumed) (assay: ELISA).
T3 construct: also called FcγRIIIA (ELISA)
T3 sequence (P08637 17-208 F176V limits assumed, form in doubt): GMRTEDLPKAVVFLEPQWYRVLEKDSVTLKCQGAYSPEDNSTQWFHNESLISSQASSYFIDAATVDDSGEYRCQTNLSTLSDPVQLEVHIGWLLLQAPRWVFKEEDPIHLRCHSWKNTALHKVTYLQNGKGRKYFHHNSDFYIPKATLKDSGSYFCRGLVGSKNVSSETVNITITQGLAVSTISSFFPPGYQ

Binder | ELISA binding, fold vs Wt [X]
B1 | 1.5

Target: T3, FcγRIIIA (form not stated)
Assay: ELISA
Remark: another data set of the same source

Binder | fold increase vs WT [x] | fold vs WT [x] | fold decrease vs WT [x]
B2 | 0.5 | – | –
B3 | 0.5 | – | –
B4 | 0.25 | – | –
B5 | 4 | – | –
B6 | – | 1 | –
B7 | 3 | – | –
B8 | 1.5 | – | –
B9 | 1.3 | – | –
B10 | 0.5 | – | –
B11 | 1 | – | –
B12 | 1.75 | – | –
B13 | 0.5 | – | –
B14 | 1.5 | – | –
B15 | 2.8 | – | –
B16 | 1 | – | –
B17 | 1.1 | – | –
B18 | 0.5 | – | –
B19 | 1.5 | – | –
B20 | 0.75 | – | –
B21 | 1.3 | – | –
B22 | 1 | – | –
B23 | 2.2 | – | –
B24 | – | – | 0.5
B1 | 1.5 | – | –
B25 | 1 | – | –

What follows are binders tested against T1, FcγRIIB (form not stated) (assay: ELISA).

Binder | binding result | fold increase vs WT [x] | fold decrease vs WT [x]
B2 | binds | – | –
B3 | – | 0.75 | –
B4 | – | 5 | –
B5 | – | 9.3 | –
B6 | binds | – | –
B7 | – | 2.5 | –
B8 | – | 5 | –
B9 | – | 6.7 | –
B10 | – | 6 | –
B11 | – | 5 | –
B12 | – | 1.5 | –
B13 | binds | – | –
B14 | – | 1 | –
B15 | – | 6.1 | –
B16 | – | 7 | –
B17 | – | 4.8 | –
B18 | – | 7 | –
B19 | binds | – | –
B20 | – | – | 0.25
B21 | – | 10.8 | –
B22 | – | 9 | –
B23 | – | 3.7 | –
B24 | – | – | 0.25
B1 | binds | – | –
B25 | binds | – | –

What follows are binders tested against T2, FcγRIIB-Fc fusion protein, soluble … (assay: ELISA).

Binder | ELISA, OD [OD]
B26 | 1.2
B27 | 0.1

These binders were tested against T2, FcγRIIB-Fc fusion protein, soluble … (assay: BIAcore, ch4-4-20).
Protocol: (§1) Following this, the unreacted active esters were “capped off” with an injection of 1M Et-NH2. Once a suitable surface was prepared, ch 4-4-20 antibodies carrying the Fc mutations were passed over the surface by one minute injections of a 20 μg/mL solution at a […] flow rate. […] Next, dilution series of the receptor (FcγRIIIA and FcγRIIB-Fc fusion protein) in HBS-P buffer (10 mM HEPES, 150 mM NaCl, 0.005% Surfactant P20, 3 mM EDTA, pH 7.4) were injected onto the surface at 100 μL/min Antibody regeneration between different receptor dilutions was carried out by single 5 second injections of 100 mM NaHCO₃ pH 9.4; 3M NaCl.
(§2) Binding curves for two different concentrations (200 nM and 800 nM for FcγRIIIA and 200 nM and 400 nM for FcγRIIB fusion protein) were aligned and responses adjusted to the same level of captured antibodies, and the reference curves were subtracted from the experimental curves. Association and dissociation phases were fitted separately. Dissociation rate constant was obtained for interval 32-34 sec of the dissociation phase; association phase fit was obtained by a 1:1 Langmuir model and base fit was selected on the basis Rₘₐₓ and chi² criteria.
Secondary Screen of Mutants via BIAcore: Mutants that were selected in the above screens were then analyzed by BIAcore to determine the kinetic parameters for binding FcγRIIIA (158V) and FcγRIIB. The method used was similar to that disclosed in Section 7.1, supra.

Binder | Koff WT/Mut [ratio]
B28 | 0.67
B29 | 0.62

These binders were tested against T4, soluble monomeric FcγRIIIA, the extracellular region of FcγRIIIA joined to the linker-AVITAG sequence (UniProt P08637 17-208) (assay: BIAcore, Ab on BSA-FITC).
T4 construct: extracellular domain; also called FcRIIIA

Binder | Kd [µM] | koff [s⁻¹] | kon [M⁻¹ s⁻¹]
B27 | 0.0702 | 0.105 | 1.43e+06

These binders were tested against T2, FcγRIIB-Fc fusion protein, soluble … (assay: BIAcore, Ab on BSA-FITC).
Protocol: as §1, §2

Binder | Kd [µM] | koff [s⁻¹]
B26 | 0.0413 | 0.05
B27 | 0.108 | 0.107
